Test: label from the status in PepcDB records

Sequence | protein production
MSKGTLFTIAVTPKIPPRLARLEDLANDLWYSWDRATRSLFSRLDPSLWGAVGHNPKAFLKRVDETLLLKAAEDQVFLANYNSIVSAYDYYHSETLWNGIDASLNPSDKIAYFCFEFGFHESFPIYSGGLGILAGDHCKAASDLRLPLIGIGLLYRQGYFFQTIDNQGNQQVIYADSDFSDLPVAPVLREDGSEVRIKVELLQRPVAIKVWRAKIGHVSLYLLDTDLPENSPGDRDITHQLYGGDRVMRIEQEIVLGVGGIRALREMGIEPTIWHINEGHAAFMMLERIRGHVQQGLDFPAALEAVAASTVFTTHTAVPAGHDHFSDDMMNAYFEPFYRDLKITREDFLALGRVPGSDDFNMTDLAIRASRYQNGVSKIHGNVSARICKDVWPQIEPEENPMSYITNGVHVPTFLAQEWADLFDRYLGYEWRNNMCDTEYWSRIDTIPDHLFWSVRQTLKSQMFYGIRARLTTQNARNHGSEAHLDRLLRFTDPINPNILTLGFGRRFATYKRATLLFEDLDWLRRIMLDQEHPVMIVFAGKAHPADVPGQDLIRRVSEIARMPEFEGQILLVEDYDLRLARRLVAGVDVWINSPVYPLEASGTSGMKAGINGTINLSVLDGWWGEGYDGKNGWAIKPGPENMDAVRRDKEESKDFYETLQDHVVPLYYNRDKLGYSSGWVKMAKNSMKSLLPRYNATRMITEYTMKFYLPAKKQGALYAADDFSNARKIAAWKAFVREAWPGVTIRRLDKPFSQISFGEAVDFRVAVRLNGLHPEDVVVELLICRRLKKTTLCSFKHVRFQFRGIEEESAEHLFELDHTPDLCGKLDYYIRVYPYHALLTHPFEMGMMVWL | failed
MSKHTVLFELGCEELPPKSLKTLRDALQAETVKGLKDAGLAFASIEAYAAPRRLALKIVDVDGAQADTQKRFDGPAVQAAYDAEGKPTKALEGFMRGQGITADQVSTFQAGKVEKVCYLKDVKGQTLDALLPQILQTALDNLPIAKRMRSAASRTEFVRPVKWVVLLKDDQIIEATIQDHQAGNVTYGHRFHAPEAVTLAHANDYLAALEKAYVVANFEKRQATIQEQVKKLADEVNATAIVPADLLDEVTSLVEWPVALRANFEERFLAVPQEALITTMQDNQKYFCLINSEGKLQPYFITVSNIESKDPTQIIEGNEKVVRPRLSDAEFFFLQDQKQPLASRKEKLANMVFQAQLGTLWDKSTRIAKLAVALSPITGANPADAEKAALLAKCDLTSELVGEFPELQGIAGTYYARIEGENTEVSEALGEQYLPKFAGDVLPKTKTGTTIALADRLDTLVGIFGIGQAPTGSKDPFALRRSAIGILRLIIENELDVTIEELVNLALQGYGDIVKDHDKTLADAVAFLEGRYRAKYEDQGVAVDVLQAVQALAPKS | failed
MSKKIFAALIVAVVATFAGYNIYQSQRAEMEMSDLAMANIEALANDGESSTETTWSCKGTVGTCGAKCGLCGTTIPKSKGTLTGSHKCSM | failed
MSKKPHSIKVPTQYRATAKILKAALEQQKCIKTLIFAEKHARTRSLHTVLKKFSENRVALEKAIEETGLLRDNPSFDPSLAKILVTELLFGRKELNGESKPVQTVRSYKDRLLNSIRDFGVQRKEPNPRYVRINTNLYSLAEALDYLHKSDWRRKELPADASYADFLTAIKSLAENEFMTDLHVEGVLIFPAKWSNYWVRHPLVHSKRFILQNKATCLAAELLAPPSGATVLDMCAAPGMKTVHICNVMQNKGCIYSVEQDHVRYNTLCEITKDAGCDIVKPILGDALNLTPERFPDVEYILVDPSCSGSGMQNRMTVCDEPKEDKRLQKLQGLQIKILSHAMGAFPNVKRIAYCTCSLWKEENEQVVQRCLQLNPSFKLLSCKKALRNKWHNVGDKDYPNIGKNVLYCQPDSDLTDGIFLALFEKRREGEKD | failed
MSKKQKPTGNTGRKNQIKGKYAERSRKNGFGKFCLILQVIMSAAFMGVLVLLDMLPLKYLALAALILFFLWCITFTTQAVRKKKGVTGKVYSILLIAVLAVGTYYIAKTNDMIAAITSGGSKVDKMVVAVLKDDPAETLEDASDYEFGVQFNTGAENMKAAVMDIQDQIGDISTTEYKSVQEQAEALISGEVDAIIYNQSYTELMENAVEGYNDQIRIIYKHEIETKFDFGGSAKDDSLTKKPFTVYISGIDTYGDDADDDRDSIRSDVNIIAVVNPTTHQILLITTPRDYYIPIPGISDGMNDKLTHAGTYGIDVSMETLGALYETDINYYVRLNFSSLIEIVDILGGVDVYSEYAFTTGWESGYEMEVQQGINHFDGKQALAFSRERHALEGGDNQRGKNQQAVITAMLKKVLSPTMLLKANSIINQVSQDVETNISQGQLNSLVKSQLKSGAKWTIQSVAASGTDGEDYCYSVPDMPLYVLYPDEEVVNSIVELANIVEEGGSLESGEALN | failed
MSKPEFIARQGRKPTGWLGHIVARVMARETRPENDRALSFLDLADGDSLIDIGCGHGETLFQADRIVRLSGSVGVDFSEVMLKRARARNRDAVWDTRMAFHCADTAALPFPDKRFGKALSVHTIYFWPNPAAHLAEAFRVLRRGGRFLFCYRSTADRRAVEEFPDTVYRFPSVQEVEEKLKLVGFLGPETTTEDIKGRLTHWSIAEKPLEHHHHHH | not failed
MSKRWLYSLQLIFFITLVFVLVTGCYSHPNQNIQSANSKPVTSECRIIKHPLGETCIPLHPQRIIAMDEDILEILVALDLKPIAVAINFDEWSSREKQLWQKAEGIDSIVIGNHGILNLEKMLLLKPDLILGLAESTDRKSYELFSQIAPTVTVDYAQTAWRDVLLRVGNIIGKTEQAQKLIAEFQQRIEKLRVIVKNKLGKTKISVVRVYNYFHKTIEFRSNFSFPGSLLVELGLSFPEKQNQIPTSPGFPFVFASLERLDLLDADVMFVTLDAGGEENFKKFQASPLWQKLKAVKNNCVYTVDSGYWIFGNIMSANAILDDLDKYLLQQCR | failed
MSKSLGFKVSVSFVNIFALPFFFVLLYGSGFVGAKLGLPHSTPLSFLSLRFMAAGLILLIIAKLIGNQLPNWREAIHISVAGSLTVCLFSVGVFVSIDMGLSPAVSALIVALQPILVALFARKLVNEQLNLAQWFGLLFGFLGVIVVVIDSIETTSFSWVAIAMSVLALFGVTFGSLYQKRYCADMEIFYGGAIQSLVSGLICLALLPFFESFKVVWTGEFIISLVYMVVGVSLGALSLLYIMIQRGEVSRVASVFYLVPVSAAVSAYLLFGETIESTTLFGASIIALGIFLTNRKSQNNMVVSMNK | failed
MSKSTAEIRQAFLDFFHSKGHQVVASSSLVPNNDPTLLFTNAGMNQFKDVFLGLDKRNYSRATTSQRCVRAGGKHNDLENVGYTARHHTFFEMLGNFSFGDYFKHDAIQFAWELLTGENWFALPKERLWVTVYETDDEAYEIWEKEVGIPRERIIRIGDNKGAPYASDNFWQMGDTGPCGPCTEIFYDHGDHIWGGPPGSPEEDGDRYIEIWNIVFMQFNRQADGTMEPLPKPSVDTGMGLERIAAVLQHVNSNYDIDLFRTLIEAVAKVTGATDLGNKSLRVIADHIRSCAFLVADGVLPSNENRGYVLRRIIRRAVRHGNMLGAKETFFYKLVGPLIEVMGSAGEELKRQQAQVEQVLKTEEEQFARTLERGLALLDEELAKLQGDTLDGETAFRLYDTYGFPVDLTADVCRERNIKVDEAGFEAAMEEQRRRAREASGFGADYNAMIRVDSASEFKGYDHLELNGKVTALFVDGKAVEAINAGQEAVVVLDQTPFYAESGGQVGDKGELKGAGFTFAVDDTQKYGQAIGHLGKLSAGALKVGDAVQADVDEARRARIRLNHSATHLMHAALRQVLGTHVAQKGSLVSDKVLRFDFSHNEAMKPSEIREVEDLVNAQIRRNLPIETNIMDLDAAKAKGAMALFGEKYDERVRVLSMGDFSTELCGGTHASRTGDIGLFRIISESGTAAGIRRIEAVTGEGAMATVHAQSDRLNDIAHLLKGDSQNLGDKVRAVLERTRQLEKELQQLKDQAAAQESANLSSKAVDLNGVKLLVSELAGIEPKMLRTMVDDLKNQLGSTVIVLATVVEGKVSLIAGVSKDVTDRVKAGELIGMVAQQVGGKGGGRPDMAQAGGTDAAALPAALASVQGWVSAKLQ | failed
MSKTANFLSLRSNPLPPIFSSTGNSPFLRASSALNLPTTASKPFHSWIRASSRRRLVLGGFGGASLWMNNNMSGKFGGKSFIASARQTNPSPVEQALNKVDWPETFPFKEEDFQRYDESSDSTFYEAPRFVTHIDDPAIAALTKYYSKVLPQSDTPGVSILDMCSSWVSHYPPGYRQERIVGMGMNEEELKRNPVLTEYIVQDLNLNSNLPFEDNSFQVITNVVSVDYLTKPLEVFKEMNRILKPGGLALMSFSNRCFFTKAISIWTSTGDADHALIVGSYFHYAGGFEAPQAVDISPNPGRSDPMYVVYSRKLPMV | failed
MSKTVVLPQSDSPSVVASVSFWQAFRFWLKLGFISFGGPAGQIAMMHQELVDNRRWISEGRFLHALNFCMVLPGPEAQQLATYIGWLMHKTWGGVIAGVLFILPSLVLLIALAWIYLVWGDVAVVAGIFYGIKPAVAAIVLQAAHRIGSRALKNGAYWAIAAAAFVAIFALNVPFPLIVLAAALVGFIGGRLAPTIFGRADAHHAQSHPGGAAIIDDTTPIPAHAIFSWRRTSQVLIAGMLLWLVPMAALTLMLGWAHPLTQMSWFFTKAALMTFGGAYAVLPYVYQGAVTHYGWLTAGQMMDGLALGESTPGPLIMVVTFVGFVGGYTKAVLGVDDVLLGGIAAACLVTWFTFLPSFIFILAGGPFIETTHNKVGFTAPLTAITAAVVGVILNLALFFIWHSVWGPSGFDPWSAAIALGAAGLLFRYKWKLTWVLATAAAVGLIVHMAGLSGAG | failed
MSKVIYKISIDLGGIVKRNFEKETKNCGKVNEEVLFKILKSNDKSEIGIKFKFKDIKSIRQFKDSVPITEYKDYEKYINRMADGEGNVLMSEKVEYFGHTSGTTGKQKLVPCTKNSRRRASKYMALLVNRFCYDNFKENWNYARGMMIADIVMTTYTKGKIPICSATSGGMKGIKHLLPYLYTSPIEVMEIKDKETALYLHLLFGLEEEELLYISGVFISNILDLFRTLEKNNKALVRDIQKGSISEELNIDEGLRKVLNKKLKPNNKRAMELEKEFKKGFKGIAKRIWPNLLYIASVTGANFSIYNDKVYYYIDSIPIYSAAYGSTEAMIGINPYASKVLYVITPSAVFYEFIPIGEKGEESFDTLLLSELKLGGRYEVVITNYAGLYRYKIGDVVKVVGFYNKCPEIEFLYRKNQVLNMAAEKTNEEHLTYAIKNTIKKLNLDLVDYTTEPDNSITPGRYIFYFEFRNNMYGFSTEKLQNILDDELRVSNLAYNRARNNKKLGMLKVEVLAPNTFDLIKEALFNKGISKNQIKIPRVIINNKIVMDIINRNKIKFVKKSVI | failed
MSKVKIELFTSPMCPHCPAAKRVVEEVANEMPDAVEVEYINVMENPQKAMEYGIMAVPTIVINGDVEFIGAPTKEALVEAIKKRL | not failed
MSKVNEITRESWILSTFPEWGTWLNEEIEQTVVEPNTFSMWWLGCTGIWLKSAGNTNLSIDFWCGTGKKTQKNRLMNTQHQMMRMGGVEALQPNLRTSIFPLDPFAIKEIDAVLASHDHADHIDVNVAAAVLQNCGEHVKFIGPQACVDLWLGWGVPQERCIVAKVGDVLEIGDVKIRVLDSFDRTALVTLPKGVSSYDKAILDGMDERAVNYLIETSGGSVYHSGDSHYSNYYAKHGNDYQIDVALLSYGENPRGVTDKMTSSDVLRAAESLDCQVVVPFHHDIWANFQNDPREIEVLWNMKKDRLQYQFAPFFWQVGGKYTYPTDKGRMHYQHFRGFQDIFKNEPELPYKAFL | not failed
MSLAHKFDPSKIKKLDDPSRLELFDPEKVLKEFGLKEGMTVLDVGTGAGFYLPYLSKMVGEKGKVYAIDVQEEMVNYAWEKVNKLGLKNVEVLKSEENKIPLPDNTVDFIFMAFTFHELSEPLKFLEELKRVAKPFAYLAIIDWKKEERDKGPPPEEVYSEWEVGLILEDAGIRVGRVVEVGKYCFGVYAMIVKQEEENPLMNVPFKIPPGEGHHHHHH | not failed
MSLAHPPRLNDDKPVIWTVSVTRLFELFRDISLEFDHLANITPIQLGFEKAVTYIRKKLANERCDAIIAAGSNGAYLKSRLSVPVILIKPSGYDVLQELAKAGKLTSSIGVVTYQETIPALVAFQKTFNLRLDQRSYITEEDARGQINELKANGTEAVVGAGLITDLAEEAGMTGIFIYSAATVRQAFSDALDMTRMSLRHNTHDATRNALRTRYVLEGHHHHHH | not failed
